The test system of the data set is Bacillus subtilis. As to the kind of experiment: cleaved RNA product abundance (RNA/gDNA barcode ratio) relative to median wild-type variant (ratio to wild type); higher = more accumulation of the downstream cleavage product. The settings on record: cleavage site: cggR-gapA (positions -7 to +36 mutated). The procedure, abridged:
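B. subtilis strains with chromosomally integrated reporter mRNAs (truncated aprE or tetM) holding barcoded, mutagenized RNase Y cleavage-site windows grew in LB at 37°C from OD600 0.0003 to 0.3. Cleaved product abundance is each construct's RNA:gDNA barcode ratio, scaled to the median construct with the unmutated site. It came from sequencing barcodes of gel-selected, reverse-transcribed cleaved RNA and of genomic DNA.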

Setting [1] is: experiment (reporter, strain, medium): exp 4a: truncated aprE reporter, strain BJT201 with 2% xylose (RNase J1 expressed).
Where [2] appears, read: experiment (reporter, strain, medium): exp 2b: truncated aprE reporter, strain BJT200.
The mark [3] stands for this setting: experiment (reporter, strain, medium): exp 6: tetM reporter, strain 168.

In the case of “ACAGACGAAGGAGCCGCAAAGAAGTTATTAAGGGAAGAATAATCGCTCAATATAAATATCTCTCACTTATTTAAA”, the “cleaved RNA product abundance” value under setting [1] came to 0.114.

On to “ACAGACGAAGGAGCCGCAAAGAAGTTATTAAGGGAAGAATAATCTCTCAATATAAATATCTCTCACTTATTTAAA”, for which the “cleaved RNA product abundance” value stood at 0.124 under setting [2] and 0.201 under setting [1].

Take “ACAGACGAAGGAGCCGCAAAGAAGTTATTAAGGGAAGAATAATGCCTCAATATAAATATCTCTCACTTATTTAAA”: the “cleaved RNA product abundance” value runs as follows: under setting [2], 0.0918; under setting [1], 0.132.

As to “ACAGACGAAGGAGCCGCAAAGAAGTTATTAAGGGAAGAATAATTCCTCAATATAAATATCTCTCACTTATTTAAA”, the “cleaved RNA product abundance” value is, setting by setting: under setting [2], 0.165; under setting [1], 0.21.

With “ACAGACGAAGGAGCCGCAAAGAAGTTATTAAGGGAAGAATACTCCCTCAATATAAATATCTCTCACTTATTTAAA”, the “cleaved RNA product abundance” value runs as follows: under setting [2], 0.632; under setting [1], 1.01.

For the sequence “ACAGACGAAGGAGCCGCAAAGAAGTTATTAAGGGAAGAATAGTCCCTCAATATAAATATCTCTCACTTATTTAAA”, the “cleaved RNA product abundance” value under setting [1] is 0.594.

With “ACAGACGAAGGAGCCGCAAAGAAGTTATTAAGGGAAGAATATTCCCTCAATATAAATATCTCTCACTTATTTAAA”, the “cleaved RNA product abundance” value is, setting by setting: under setting [2], 0.797; under setting [1], 0.603.

Consider “ACAGACGAAGGAGCCGCAAAGAAGTTATTAAGGGAAGAATGATCCCTCAATATAAATATCTCTCACTTATTTAAA”, for which the “cleaved RNA product abundance” value under setting [1] was 0.925.

Take “ACAGACGAAGGAGCCGCAAAGAAGTTATTAAGGGAAGAATTATCCCTCAATATAAATATCTCTCACTTATTTAAA”: under setting [1], the “cleaved RNA product abundance” value was determined as 0.771.

As for “ACAGACGAAGGAGCCGCAAAGAAGTTATTAAGGGAAGACTAATCCCTCAATATAAATATCTCTCACTTATTTAAA”, under setting [1], the “cleaved RNA product abundance” value turned out to be 0.452.

Take “ACAGACGAAGGAGCCGCAAAGAAGTTATTAAGGGAAGCATAATCCCTCAATATAAATATCTCTCACTTATTTAAA”: under setting [1], the “cleaved RNA product abundance” value was 0.551.

Regarding “ACAGACGAAGGAGCCGCAAAGAAGTTATTAAGGGAAGTATAATCCCTCAATATAAATATCTCTCACTTATTTAAA”, the “cleaved RNA product abundance” value under setting [2] is 0.599.

Turning to “ACAGACGAAGGAGCCGCAAAGAAGTTATTAAGGGAATAATAATCCCTCAATATAAATATCTCTCACTTATTTAAA”, the “cleaved RNA product abundance” value by setting is: under setting [2], 0.811; under setting [1], 0.934.

Regarding “ACAGACGAAGGAGCCGCAAAGAAGTTATTAAGGGAATGAATAATCCCTCAATATAAATATCTCTCACTTATTTAA”, under setting [1], the “cleaved RNA product abundance” value was determined as 0.604.

As to “ACAGACGAAGGAGCCGCAAAGAAGTTATTAAGGGACAAATAATCCCTCAATATAAATATCTCTCACTTATTTAAA”, the “cleaved RNA product abundance” value under setting [1] was determined as 0.84.

For the sequence “ACAGACGAAGGAGCCGCAAAGAAGTTATTAAGGGACGAATAAACCCTCAATATAAATATCTCTCACTTATTTAAA”, the “cleaved RNA product abundance” value runs as follows: under setting [2], 0.197; under setting [1], 0.237.

In the case of “ACAGACGAAGGAGCCGCAAAGAAGTTATTAAGGGACGAATAACCCCTCAATATAAATATCTCTCACTTATTTAAA”, under setting [1], the “cleaved RNA product abundance” value is 0.19.

With “ACAGACGAAGGAGCCGCAAAGAAGTTATTAAGGGACGAATAATACCTCAATATAAATATCTCTCACTTATTTAAA”, the “cleaved RNA product abundance” value under setting [1] was 0.12.

Take “ACAGACGAAGGAGCCGCAAAGAAGTTATTAAGGGACGAATAATCAATCAATATAAATATCTCTCACTTATTTAAA”: the “cleaved RNA product abundance” value under setting [1] was determined as 0.132.

In the case of “ACAGACGAAGGAGCCGCAAAGAAGTTATTAAGGGACGAATAATCACTCAATATAAATATCTCTCACTTATTTAAA”, under setting [1], the “cleaved RNA product abundance” value worked out at 0.0856.

With “ACAGACGAAGGAGCCGCAAAGAAGTTATTAAGGGACGAATAATCCATCAATATAAATATCTCTCACTTATTTAAA”, the “cleaved RNA product abundance” value under setting [1] worked out at 0.0728.

Regarding “ACAGACGAAGGAGCCGCAAAGAAGTTATTAAGGGACGAATAATCCCACAATATAAATATCTCTCACTTATTTAAA”, under setting [2], the “cleaved RNA product abundance” value turned out to be 0.13.

As for “ACAGACGAAGGAGCCGCAAAGAAGTTATTAAGGGACGAATAATCCCGCAATATAAATATCTCTCACTTATTTAAA”, under setting [1], the “cleaved RNA product abundance” value amounted to 0.132.

In the case of “ACAGACGAAGGAGCCGCAAAGAAGTTATTAAGGGACGAATAATCCCTAAATATAAATATCTCTCACTTATTTAAA”, the “cleaved RNA product abundance” value under setting [1] was 0.287.

With “ACAGACGAAGGAGCCGCAAAGAAGTTATTAAGGGACGAATAATCCCTCAAAATAAATATCTCTCACTTATTTAAA”, the “cleaved RNA product abundance” value under setting [1] stood at 0.346.

As to “ACAGACGAAGGAGCCGCAAAGAAGTTATTAAGGGACGAATAATCCCTCAATATAAATAGCTCTCACTTATTTAAA”, under setting [1], the “cleaved RNA product abundance” value was found to be 0.3.

Consider “ACAGACGAAGGAGCCGCAAAGAAGTTATTAAGGGACGAATAATCCCTCAATATAAATATCTCTCACTTATTTAAA”, for which the “cleaved RNA product abundance” value came out at 0.691 under setting [2], 0.697 under setting [1] and 0.805 under setting [3].

Consider “ACAGACGAAGGAGCCGCAAAGAAGTTATTAAGGGACGAATAATCCCTCAATATAAATCTCTCTCACTTATTTAAA”, for which, under setting [1], the “cleaved RNA product abundance” value is 0.53.

Regarding “ACAGACGAAGGAGCCGCAAAGAAGTTATTAAGGGACGAATAATCCCTCAATATAAATTTCTCTCACTTATTTAAA”, the “cleaved RNA product abundance” value under setting [1] stood at 0.559.

As for “ACAGACGAAGGAGCCGCAAAGAAGTTATTAAGGGACGAATAATCCCTCAATATATATATCTCTCACTTATTTAAA”, the “cleaved RNA product abundance” value runs as follows: under setting [2], 0.629; under setting [1], 0.771.

Consider “ACAGACGAAGGAGCCGCAAAGAAGTTATTAAGGGACGAATAATCCCTCAATCTAAATATCTCTCACTTATTTAAA”, for which the “cleaved RNA product abundance” value under setting [1] amounted to 0.0944.

In the case of “ACAGACGAAGGAGCCGCAAAGAAGTTATTAAGGGACGAATAATCCCTCAGTATAAATATCTCTCACTTATTTAAA”, the “cleaved RNA product abundance” value under setting [1] is 0.415.

For the sequence “ACAGACGAAGGAGCCGCAAAGAAGTTATTAAGGGACGAATAATCCCTCATTATAAATATCTCTCACTTATTTAAA”, the “cleaved RNA product abundance” value was 0.215 under setting [2] and 0.326 under setting [1].

As for “ACAGACGAAGGAGCCGCAAAGAAGTTATTAAGGGACGAATAATCCCTCCATATAAATATCTCTCACTTATTTAAA”, under setting [1], the “cleaved RNA product abundance” value worked out at 0.255.

Take “ACAGACGAAGGAGCCGCAAAGAAGTTATTAAGGGACGAATAATCCGTCAATATAAATATCTCTCACTTATTTAAA”: the “cleaved RNA product abundance” value by setting is: under setting [2], 0.0596; under setting [1], 0.072.

With “ACAGACGAAGGAGCCGCAAAGAAGTTATTAAGGGACGAATAATCCTTCAATATAAATATCTCTCACTTATTTAAA”, the “cleaved RNA product abundance” value runs as follows: under setting [2], 0.146; under setting [1], 0.217.

For “ACAGACGAAGGAGCCGCAAAGAAGTTATTAAGGGACGAATAATCGCTCAATATAAATATCTCTCACTTATTTAAA”, the “cleaved RNA product abundance” value under setting [1] was found to be 0.0681.

Consider “ACAGACGAAGGAGCCGCAAAGAAGTTATTAAGGGACGAATAATCTCTCAATATAAATATCTCTCACTTATTTAAA”, for which, under setting [2], the “cleaved RNA product abundance” value was found to be 0.139.

As for “ACAGACGAAGGAGCCGCAAAGAAGTTATTAAGGGACGAATAATTCCTCAATATAAATATCTCTCACTTATTTAAA”, the “cleaved RNA product abundance” value is 0.126 under setting [2] and 0.192 under setting [1].

As for “ACAGACGAAGGAGCCGCAAAGAAGTTATTAAGGGACGAATAGTCCCTCAATATAAATATCTCTCACTTATTTAAA”, the “cleaved RNA product abundance” value under setting [2] stood at 0.905.

For “ACAGACGAAGGAGCCGCAAAGAAGTTATTAAGGGACGAATATTCCCTCAATATAAATATCTCTCACTTATTTAAA”, the “cleaved RNA product abundance” value under setting [1] stood at 0.525.

“ACAGACGAAGGAGCCGCAAAGAAGTTATTAAGGGACGATTAATCCCTCAATATAAATATCTCTCACTTATTTAAA”: under setting [1], the “cleaved RNA product abundance” value came to 0.349.

In the case of “ACAGACGAAGGAGCCGCAAAGAAGTTATTAAGGGACGTATAATCCCTCAATATAAATATCTCTCACTTATTTAAA”, the “cleaved RNA product abundance” value under setting [1] is 0.705.

Turning to “ACAGACGAAGGAGCCGCAAAGAAGTTATTAAGGGACTAATAATCCCTCAATATAAATATCTCTCACTTATTTAAA”, the “cleaved RNA product abundance” value turned out to be 1.03 under setting [2] and 1.01 under setting [1].

As to “ACAGACGAAGGAGCCGCAAAGAAGTTATTAAGGGAGAAATAATCCCTCAATATAAATATCTCTCACTTATTTAAA”, the “cleaved RNA product abundance” value under setting [1] is 0.795.

In the case of “ACAGACGAAGGAGCCGCAAAGAAGTTATTAAGGGAGAATAATCCCTCAATATAAATATCTCTCACTTATTTAAAG”, the “cleaved RNA product abundance” value under setting [1] came to 0.471.

As for “ACAGACGAAGGAGCCGCAAAGAAGTTATTAAGGGAGCAATAATCCCTCAATATAAATATCTCTCACTTATTTAAA”, the “cleaved RNA product abundance” value under setting [1] is 0.631.

“ACAGACGAAGGAGCCGCAAAGAAGTTATTAAGGGAGGAATAAACCCTCAATATAAATATCTCTCACTTATTTAAA”: the “cleaved RNA product abundance” value under setting [1] was 0.382.

In the case of “ACAGACGAAGGAGCCGCAAAGAAGTTATTAAGGGAGGAATAACCCCTCAATATAAATATCTCTCACTTATTTAAA”, the “cleaved RNA product abundance” value under setting [1] worked out at 0.213.

As to “ACAGACGAAGGAGCCGCAAAGAAGTTATTAAGGGAGGAATAATCCATCAATATAAATATCTCTCACTTATTTAAA”, under setting [1], the “cleaved RNA product abundance” value was found to be 0.209.

Consider “ACAGACGAAGGAGCCGCAAAGAAGTTATTAAGGGAGGAATAATCCCTAAATATAAATATCTCTCACTTATTTAAA”, for which the “cleaved RNA product abundance” value under setting [2] was 0.404 and the “cleaved RNA product abundance” value under setting [1] came to 0.324.

In the case of “ACAGACGAAGGAGCCGCAAAGAAGTTATTAAGGGAGGAATAATCCCTCAAAATAAATATCTCTCACTTATTTAAA”, the “cleaved RNA product abundance” value under setting [1] stood at 0.284.

Regarding “ACAGACGAAGGAGCCGCAAAGAAGTTATTAAGGGAGGAATAATCCCTCAAGATAAATATCTCTCACTTATTTAAA”, the “cleaved RNA product abundance” value under setting [1] was found to be 0.152.

On to “ACAGACGAAGGAGCCGCAAAGAAGTTATTAAGGGAGGAATAATCCCTCAATATAAATATCTCTCACTTATTTAAA”, for which the “cleaved RNA product abundance” value amounted to 0.499 under setting [2], 0.603 under setting [1] and 0.591 under setting [3].

(Values after the supplement of paper PMC11780869.)
